This experiment deals with HA-bromoTAG-PPM1H.

Consider FLAG-dTAG-SMAD3, for which the decrease in tail phosphorylation of dTAG-SMAD3 by immunoblot in U2OS cells co-expressing both, 2 h TGF-β with BDPIC 0.1-10 μM against DMSO turned out to be 50%.

The record behind these values is publication PMC11298613.
